Experimental findings from patent US20200255869 are described below.

The series deals with purified HSA (Abcam, ab201876) (UniProt P02768).
Chain of UniProt P02768 (P02768 whole entry, looked up): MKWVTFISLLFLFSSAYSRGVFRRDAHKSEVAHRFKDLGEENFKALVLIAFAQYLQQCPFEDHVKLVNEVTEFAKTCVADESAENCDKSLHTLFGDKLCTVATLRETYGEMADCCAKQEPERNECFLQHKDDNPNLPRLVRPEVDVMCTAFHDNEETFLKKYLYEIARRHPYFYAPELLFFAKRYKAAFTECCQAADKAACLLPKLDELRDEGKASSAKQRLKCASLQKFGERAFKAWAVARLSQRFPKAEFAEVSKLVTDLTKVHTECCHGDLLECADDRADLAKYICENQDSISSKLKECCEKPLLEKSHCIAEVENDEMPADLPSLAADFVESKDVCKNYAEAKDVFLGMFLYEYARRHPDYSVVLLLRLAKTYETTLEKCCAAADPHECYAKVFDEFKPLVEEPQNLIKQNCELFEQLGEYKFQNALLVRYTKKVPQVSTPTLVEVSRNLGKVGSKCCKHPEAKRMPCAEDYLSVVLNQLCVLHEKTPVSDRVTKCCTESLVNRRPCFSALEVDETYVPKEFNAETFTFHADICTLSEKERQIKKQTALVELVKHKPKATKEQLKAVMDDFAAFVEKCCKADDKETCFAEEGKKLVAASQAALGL

In the case of “YscB protein of Talaromyces cellulolyticus strain S6-25”, the “degradation of purified HSA mixed with culture supernatant (30 C, 3 days), SDS-PAGE and Western blotting using an anti-HSA antibody” value is “in the case of the strain deficient in yscB, the bands corresponding to degradation products were eliminated”.
